The labels stand for the following.
B1: PS3B84 (bispecific antibody, human IgG4 S228P, kappa, lambda, F234A L235A)
heavy 1: not shown
light 1: not shown
heavy 2: QVQLQQSGPRLVRPSQTLSLTCAISGDSVFNNNAAWSWIRQSPSRGLEWLGRTYYRSKWLYDYAVSVKSRITVNPDTSRNQFTLQLNSVTPEDTALYYCARGYSSSFDYWGQGTLVTVSSASTKGPSVFPLAPCSRSTSESTAALGCLVKDYFPEPVTVSWNSGALTSGVHTFPAVLQSSGLYSLSSVVTVPSSSLGTKTYTCNVDHKPSNTKVDKRVESKYGPPCPPCPAPEAAGGPSVFLFPPKPKDTLMISRTPEVTCVVVDVSQEDPEVQFNWYVDGVEVHNAKTKPREEQFNSTYRVVSVLTVLHQDWLNGKEYKCKVSNKGLPSSIEKTISKAKGQPREPQVYTLPPSQEEMTKNQVSLTCLVKGFYPSDIAVEWESNGQPENNYKTTPPVLDSDGSFLLYSKLTVDKSRWQEGNVFSCSVMHEALHNHYTQKSLSLSLGK
light 2: QSALTQPASVSGSPGQSITISCTGTSSNIGTYKFVSWYQQHPDKAPKVLLYEVSKRPSGVSSRFSGSKSGNTASLTISGLQAEDQADYHCVSYAGSGTLLFGGGTKLTVLGQPKAAPSVTLFPPSSEELQANKATLVCLISDFYPGAVTVAWKADSSPVKAGVETTTPSKQSNNKYAASSYLSLTPEQWKSHRSYSCQVTHEGSTVEKTVAPTECS
notes: IgG4 PAA; also called PSMB344 x CD3B376
B2: PS3B76 (bispecific antibody, human IgG4 S228P, kappa, lambda, F234A L235A)
heavy 1: not shown
light 1: not shown
heavy 2: B1 heavy 2
light 2: B1 light 2
notes: IgG4 PAA; also called PSMB358 x CD3B376
B3: PS3B83 (bispecific antibody, human IgG4 S228P, kappa, lambda, F234A L235A)
heavy 1: not shown
light 1: not shown
heavy 2: B1 heavy 2
light 2: B1 light 2
notes: IgG4 PAA; also called PSMB363 x CD3B376
B4: PS3B79 (bispecific antibody, human IgG4 S228P, kappa, lambda, F234A L235A)
heavy 1: not shown
light 1: not shown
heavy 2: B1 heavy 2
light 2: B1 light 2
notes: IgG4 PAA; also called PSMB360 x CD3B376
B5: PS3B81 (bispecific antibody, human IgG4 S228P, kappa, lambda, F234A L235A)
heavy 1: not shown
light 1: not shown
heavy 2: B1 heavy 2
light 2: B1 light 2
notes: IgG4 PAA; also called PSMB361 x CD3B376
B6: PS3B85 (bispecific antibody, human IgG4 S228P, kappa, lambda, F234A L235A)
heavy 1: not shown
light 1: not shown
heavy 2: B1 heavy 2
light 2: B1 light 2
notes: IgG4 PAA; also called PSMB345 x CD3B376
B7: PS3B78 (bispecific antibody, human IgG4 S228P, kappa, lambda, F234A L235A)
heavy 1: not shown
light 1: not shown
heavy 2: B1 heavy 2
light 2: B1 light 2
notes: IgG4 PAA; also called PSMB359 x CD3B376
B8: PS3B86 (bispecific antibody, human IgG4 S228P, kappa, lambda, F234A L235A)
heavy 1: not shown
light 1: not shown
heavy 2: B1 heavy 2
light 2: B1 light 2
notes: IgG4 PAA; also called PSMB346 x CD3B376
B9: PS3B82 (bispecific antibody, human IgG4 S228P, kappa, lambda, F234A L235A)
heavy 1: not shown
light 1: not shown
heavy 2: B1 heavy 2
light 2: B1 light 2
notes: IgG4 PAA; also called PSMB362 x CD3B376
B10: PS3B80 (bispecific antibody, human IgG4 S228P, kappa, lambda, F234A L235A)
heavy 1: not shown
light 1: not shown
heavy 2: B1 heavy 2
light 2: B1 light 2
notes: IgG4 PAA; also called PSMB347 x CD3B376
B11: PS3B77 (bispecific antibody, human IgG4 S228P, kappa, lambda, F234A L235A)
heavy 1: not shown
light 1: not shown
heavy 2: B1 heavy 2
light 2: B1 light 2
notes: IgG4 PAA; also called PSMB349 x CD3B376
B12: BLX-2E9 (antibody, V domains shown)
VH: QVQLQQSGPGLVKPSQTLSLTCAISGDSVFNNNGAWSWIRQSPSRGLEWLGRTYYRSKWLYDYAVSVKSRITVNPDTSRNQFTLQLNSVTPEDTALYYCARGYSSSFDYWGQGTLVTVSS
VL: QSALTQPASVSGSPGQSITISCTGTSSNIGTYKFVSWYQQHPDKAPKVLLYEVSKRPSGVSSRFSGSKSGNTASLTISGLQAEDQADYHCCSYAGSGTLLFGGGTKLTVL
notes: OmniRat hybridoma supernatant: human V regions on rat constant regions; also called V regions cloned as CD3B315 (CD3H221/CD3L124)
B13: BLX-3G8 (antibody, V domains shown)
VH: B12 VH with G34A, S37T, N87K, A100S
VL: B12 VL
notes: OmniRat hybridoma supernatant: human V regions on rat constant regions; also called V regions cloned as CD3B317 (CD3H223/CD3L124)
B14: BLX-3F4 (antibody, V domains shown)
VH: B12 VH with Q3R, G34A, S66T, N87T
VL: B12 VL
notes: OmniRat hybridoma supernatant: human V regions on rat constant regions; also called V regions cloned as CD3B316 (CD3H222/CD3L124)
B15: PS3B60 (bispecific antibody, human IgG4 S228P, kappa, F234A L235A)
heavy: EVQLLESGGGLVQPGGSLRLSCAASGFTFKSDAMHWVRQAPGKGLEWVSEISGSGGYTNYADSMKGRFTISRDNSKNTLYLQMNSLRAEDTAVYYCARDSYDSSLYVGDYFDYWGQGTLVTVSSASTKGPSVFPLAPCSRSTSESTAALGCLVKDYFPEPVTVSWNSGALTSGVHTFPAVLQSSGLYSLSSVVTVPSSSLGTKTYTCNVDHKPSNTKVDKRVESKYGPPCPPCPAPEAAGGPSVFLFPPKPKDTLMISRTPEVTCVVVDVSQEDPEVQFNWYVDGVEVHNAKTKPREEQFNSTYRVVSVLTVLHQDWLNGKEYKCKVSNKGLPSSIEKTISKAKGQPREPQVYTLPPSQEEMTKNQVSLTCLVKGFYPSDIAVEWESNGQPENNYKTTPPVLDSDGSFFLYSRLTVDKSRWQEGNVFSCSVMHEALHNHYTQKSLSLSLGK
light: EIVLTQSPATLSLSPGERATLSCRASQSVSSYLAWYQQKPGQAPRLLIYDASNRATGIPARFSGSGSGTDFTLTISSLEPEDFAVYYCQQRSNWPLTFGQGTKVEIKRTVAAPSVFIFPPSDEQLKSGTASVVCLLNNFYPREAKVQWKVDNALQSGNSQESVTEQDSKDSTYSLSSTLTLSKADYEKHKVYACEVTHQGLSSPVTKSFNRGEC
VH: EVQLVESGGGLVQPGGSLRLSCAASGFTFNTYAMNWVRQAPGKGLEWVARIRSKYNNYATYYAASVKGRFTISRDDSKNSLYLQMNSLKTEDTAVYYCARHGNFGNSYVSWFAYWGQGTLVTVSS
VL: QTVVTQEPSLTVSPGGTVTLTCRSSTGAVTTSNYANWVQQKPGQAPRGLIGGTNKRAPGTPARFSGSLLGGKAALTLSGVQPEDEAEYYCALWYSNLWVFGGGTKLTVL
notes: IgG4 PAA; CD3 arm with F405L, R409K; also called PSMB344 x CD3B219
B16: PS3B72 (bispecific antibody, human IgG4 S228P, kappa, F234A L235A)
heavy: not shown
light: not shown
VH: B15 VH
VL: B15 VL
notes: IgG4 PAA; CD3 arm with F405L, R409K; also called PSMB360 x CD3B219
B17: PS3B73 (bispecific antibody, human IgG4 S228P, kappa, F234A L235A)
heavy: not shown
light: not shown
VH: B15 VH
VL: B15 VL
notes: IgG4 PAA; CD3 arm with F405L, R409K; also called PSMB361 x CD3B219
B18: PS3B62 (bispecific antibody, human IgG4 S228P, kappa, F234A L235A)
heavy: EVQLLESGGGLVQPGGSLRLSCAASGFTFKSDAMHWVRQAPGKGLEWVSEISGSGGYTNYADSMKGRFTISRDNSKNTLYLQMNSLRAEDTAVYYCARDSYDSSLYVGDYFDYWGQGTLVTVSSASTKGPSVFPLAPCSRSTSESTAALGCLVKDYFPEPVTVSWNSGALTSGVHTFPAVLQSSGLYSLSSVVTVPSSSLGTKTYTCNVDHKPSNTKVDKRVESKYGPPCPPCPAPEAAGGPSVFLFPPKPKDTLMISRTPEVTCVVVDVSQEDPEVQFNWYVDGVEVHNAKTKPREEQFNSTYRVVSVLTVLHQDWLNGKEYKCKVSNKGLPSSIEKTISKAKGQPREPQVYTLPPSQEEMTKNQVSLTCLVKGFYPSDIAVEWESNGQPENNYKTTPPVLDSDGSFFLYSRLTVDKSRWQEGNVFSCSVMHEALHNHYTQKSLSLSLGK
light: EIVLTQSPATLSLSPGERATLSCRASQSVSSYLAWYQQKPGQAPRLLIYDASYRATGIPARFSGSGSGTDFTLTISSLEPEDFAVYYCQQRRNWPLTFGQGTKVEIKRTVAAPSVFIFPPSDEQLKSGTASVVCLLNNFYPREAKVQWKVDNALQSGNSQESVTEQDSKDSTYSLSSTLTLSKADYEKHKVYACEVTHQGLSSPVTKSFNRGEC
VH: B15 VH
VL: B15 VL
notes: IgG4 PAA; CD3 arm with F405L, R409K; also called PSMB346 x CD3B219
B19: PS3B74 (bispecific antibody, human IgG4 S228P, kappa, F234A L235A)
heavy: not shown
light: not shown
VH: B15 VH
VL: B15 VL
notes: IgG4 PAA; CD3 arm with F405L, R409K; also called PSMB362 x CD3B219
B20: PS3B64 (bispecific antibody, human IgG4 S228P, kappa, F234A L235A)
heavy: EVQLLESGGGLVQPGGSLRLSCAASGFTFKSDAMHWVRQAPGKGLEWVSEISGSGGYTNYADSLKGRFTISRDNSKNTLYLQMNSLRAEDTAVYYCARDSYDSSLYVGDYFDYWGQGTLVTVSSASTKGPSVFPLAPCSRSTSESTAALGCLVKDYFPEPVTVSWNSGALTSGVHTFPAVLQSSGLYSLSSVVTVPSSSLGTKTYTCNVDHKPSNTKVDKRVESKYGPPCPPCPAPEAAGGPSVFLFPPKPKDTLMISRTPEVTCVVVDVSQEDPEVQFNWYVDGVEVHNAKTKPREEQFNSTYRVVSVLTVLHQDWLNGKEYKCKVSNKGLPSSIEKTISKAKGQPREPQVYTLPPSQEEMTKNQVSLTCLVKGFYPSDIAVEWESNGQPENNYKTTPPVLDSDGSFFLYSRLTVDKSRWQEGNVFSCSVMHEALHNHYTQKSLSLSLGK
light: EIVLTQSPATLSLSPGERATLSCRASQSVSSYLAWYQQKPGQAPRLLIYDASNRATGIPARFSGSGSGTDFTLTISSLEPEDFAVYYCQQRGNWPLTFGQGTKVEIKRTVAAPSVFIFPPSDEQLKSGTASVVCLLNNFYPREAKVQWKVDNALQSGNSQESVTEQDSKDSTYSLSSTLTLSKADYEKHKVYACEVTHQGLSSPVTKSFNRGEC
VH: B15 VH
VL: B15 VL
notes: IgG4 PAA; CD3 arm with F405L, R409K; also called PSMB349 x CD3B219
B21: PS3B61 (bispecific antibody, human IgG4 S228P, kappa, F234A L235A)
heavy: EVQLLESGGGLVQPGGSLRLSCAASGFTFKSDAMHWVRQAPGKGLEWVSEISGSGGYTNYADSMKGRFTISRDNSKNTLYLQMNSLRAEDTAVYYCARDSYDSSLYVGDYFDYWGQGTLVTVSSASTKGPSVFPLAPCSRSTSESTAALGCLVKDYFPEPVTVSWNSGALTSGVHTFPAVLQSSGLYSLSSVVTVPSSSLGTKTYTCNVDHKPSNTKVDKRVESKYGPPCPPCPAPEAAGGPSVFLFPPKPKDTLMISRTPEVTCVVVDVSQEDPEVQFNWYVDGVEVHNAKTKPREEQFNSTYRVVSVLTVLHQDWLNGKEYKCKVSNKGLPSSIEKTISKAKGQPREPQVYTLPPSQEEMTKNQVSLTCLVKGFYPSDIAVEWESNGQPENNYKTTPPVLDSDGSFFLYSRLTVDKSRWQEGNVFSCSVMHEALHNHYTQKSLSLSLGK
light: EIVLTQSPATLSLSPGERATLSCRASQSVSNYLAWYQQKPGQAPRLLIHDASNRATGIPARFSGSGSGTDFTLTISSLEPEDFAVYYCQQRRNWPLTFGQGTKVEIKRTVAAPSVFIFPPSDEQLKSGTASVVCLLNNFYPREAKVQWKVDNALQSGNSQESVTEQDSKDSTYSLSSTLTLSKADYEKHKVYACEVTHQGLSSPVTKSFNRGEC
VH: B15 VH
VL: B15 VL
notes: IgG4 PAA; CD3 arm with F405L, R409K; also called PSMB345 x CD3B219
B22: PS3B63 (bispecific antibody, human IgG4 S228P, kappa, F234A L235A)
heavy: not shown
light: not shown
VH: B15 VH
VL: B15 VL
notes: IgG4 PAA; CD3 arm with F405L, R409K; also called PSMB347 x CD3B219
B23: PS3B70 (bispecific antibody, human IgG4 S228P, kappa, F234A L235A)
heavy: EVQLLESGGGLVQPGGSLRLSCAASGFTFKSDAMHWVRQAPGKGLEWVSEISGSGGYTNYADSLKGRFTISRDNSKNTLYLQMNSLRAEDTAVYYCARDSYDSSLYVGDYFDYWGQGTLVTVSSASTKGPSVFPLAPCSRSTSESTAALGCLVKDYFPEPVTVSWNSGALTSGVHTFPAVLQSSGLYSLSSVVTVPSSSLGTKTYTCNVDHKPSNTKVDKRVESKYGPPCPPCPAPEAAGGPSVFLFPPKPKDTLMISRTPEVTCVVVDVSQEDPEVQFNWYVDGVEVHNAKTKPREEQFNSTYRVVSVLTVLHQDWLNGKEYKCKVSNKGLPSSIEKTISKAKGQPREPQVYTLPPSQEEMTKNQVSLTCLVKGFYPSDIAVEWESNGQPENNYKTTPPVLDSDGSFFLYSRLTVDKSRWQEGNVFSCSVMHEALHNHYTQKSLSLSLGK
light: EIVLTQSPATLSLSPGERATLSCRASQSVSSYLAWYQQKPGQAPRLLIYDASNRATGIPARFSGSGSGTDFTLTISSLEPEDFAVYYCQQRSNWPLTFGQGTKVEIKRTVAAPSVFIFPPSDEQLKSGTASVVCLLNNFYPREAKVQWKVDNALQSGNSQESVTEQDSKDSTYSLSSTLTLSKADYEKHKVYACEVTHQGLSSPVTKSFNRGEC
VH: B15 VH
VL: B15 VL
notes: IgG4 PAA; CD3 arm with F405L, R409K; also called PSMB358 x CD3B219
B24: PS3B71 (bispecific antibody, human IgG4 S228P, kappa, F234A L235A)
heavy: not shown
light: not shown
VH: B15 VH
VL: B15 VL
notes: IgG4 PAA; CD3 arm with F405L, R409K; also called PSMB359 x CD3B219

Numbering of substitutions follows the chain as printed. In names and notes the source's numbering stands.

T3 sequence (Q95LI5 22-198 limits assumed, chain 1 of 2): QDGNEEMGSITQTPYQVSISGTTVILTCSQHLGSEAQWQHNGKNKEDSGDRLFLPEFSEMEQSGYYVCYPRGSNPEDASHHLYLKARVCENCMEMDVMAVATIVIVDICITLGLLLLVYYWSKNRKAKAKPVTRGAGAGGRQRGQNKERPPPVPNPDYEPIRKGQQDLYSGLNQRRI
T3 sequence (Q95LI8 22-171 limits assumed, chain 2 of 2): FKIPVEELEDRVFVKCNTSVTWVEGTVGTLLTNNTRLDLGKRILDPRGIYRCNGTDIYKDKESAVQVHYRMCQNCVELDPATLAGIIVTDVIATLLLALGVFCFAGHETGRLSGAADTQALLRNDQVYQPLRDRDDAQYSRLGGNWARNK
T4 sequence (P07766 23-207 limits assumed): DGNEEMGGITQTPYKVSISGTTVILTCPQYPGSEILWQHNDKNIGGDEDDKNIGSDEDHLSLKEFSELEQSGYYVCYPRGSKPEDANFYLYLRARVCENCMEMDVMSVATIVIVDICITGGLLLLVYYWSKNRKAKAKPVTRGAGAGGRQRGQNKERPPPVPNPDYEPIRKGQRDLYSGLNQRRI
T1 sequence (Q04609 whole entry): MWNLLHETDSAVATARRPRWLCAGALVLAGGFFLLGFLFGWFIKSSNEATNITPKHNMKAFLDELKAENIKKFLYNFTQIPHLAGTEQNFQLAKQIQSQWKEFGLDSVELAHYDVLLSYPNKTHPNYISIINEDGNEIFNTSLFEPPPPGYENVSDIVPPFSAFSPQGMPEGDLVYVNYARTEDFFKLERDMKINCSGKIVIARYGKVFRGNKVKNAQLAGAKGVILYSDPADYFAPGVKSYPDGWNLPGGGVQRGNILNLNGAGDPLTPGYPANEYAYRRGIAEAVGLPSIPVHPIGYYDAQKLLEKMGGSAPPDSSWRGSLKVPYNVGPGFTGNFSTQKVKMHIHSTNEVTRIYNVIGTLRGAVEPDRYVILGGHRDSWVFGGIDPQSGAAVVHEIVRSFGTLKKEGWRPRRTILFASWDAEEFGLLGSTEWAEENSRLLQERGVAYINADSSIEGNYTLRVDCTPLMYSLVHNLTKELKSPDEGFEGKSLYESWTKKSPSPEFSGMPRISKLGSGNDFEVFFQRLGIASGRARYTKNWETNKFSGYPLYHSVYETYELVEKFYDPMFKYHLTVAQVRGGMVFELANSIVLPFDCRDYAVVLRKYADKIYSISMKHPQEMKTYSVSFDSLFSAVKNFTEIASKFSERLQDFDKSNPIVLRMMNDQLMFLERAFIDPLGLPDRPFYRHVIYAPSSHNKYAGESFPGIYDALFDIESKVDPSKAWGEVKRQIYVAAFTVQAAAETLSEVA

One assay concerns the target T1, human PSMA on cells (LNCaP) (human, UniProt Q04609 1-750).
T1 construct: whole, on cells; also called LNCaP cells
Description: flow cytometry cell binding assay on LNCaP cells. The method, then:
(§1) PSMA×CD3 bispecific antibodies were tested for binding to PSMA positive cell line, LNCAP, to PSMA negative cell line, PC3. To assess the binding capabilities of the PSMA bispecific antibodies, the cell-binding assay was utilized (described previously). Bispecific antibodies were normalized for protein concentration and then incubated with the same number of cells expressing either human or cyno PSMA. The MFI at each concentration was collected by flow cytometry and plotted as a function of concentration. Data was transformed via log 10 and then plotted. Nonlinear regression of binding curves was done to determine EC50s.
Take B1: the binding result is “binds”.

Turning to B2, the binding result is reported as “binds”.

Take B3: the binding result is “binds”.

Turning to B4, the binding result was “binds”.

In the case of B5, the binding result was “binds”.

With B6, the binding result is listed as “binds”.

In the case of B7, the binding result is “binds”.

For the molecule B8, the binding result is on record as “binds”.

As for B9, the binding result is “binds”.

For B10, the binding result is on record as “binds”.

As for B11, the binding result is “binds”.

The target in a further assay is T2, human CD3e/d complex on cells transiently transfected with pOPT-CD3e/d-hum-mix (human, UniProt P07766 23-126; P04234 22-171).
T2 construct: Tagged screening constructs
T2 sequence (P07766 23-126 limits assumed, chain 1 of 2): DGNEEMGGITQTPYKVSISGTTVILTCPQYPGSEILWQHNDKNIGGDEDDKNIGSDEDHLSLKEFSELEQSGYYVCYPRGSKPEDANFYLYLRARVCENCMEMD
T2 sequence (P04234 22-171 limits assumed, chain 2 of 2): as the sequence (Q95LI8 22-171 limits assumed, chain 2 of 2) above, with V5I, K15N, V20I, T32S, N33D, N34I, A64T, N74S, L83V, R141H counted along it
Description: CELISA, hybridoma supernatant. The method, then:
(§2) Hybridoma supernatants from fusions BLW (with magnetic bead depletion of lymphocytes) and BLX (without magnetic bead depletion of lymphocytes) were analyzed a) by a cell-based ELISA (CELISA) on cells transiently transfected with human and cynomolgus cDNA cloned into screening vectors: pOPT-CD3e-hum-epsilon-TCE.OMT+pOPT-CD3d-hum-delta.OMT, 1:1 (pOPT-CD3e/d-hum-mix) and pcDNA3.1-CD3e-cyn-[…]+pcDNA3.1-CD3d-cyn-delta, 1:1 (pcDNA3.1-CD3e/d-cyn-mix). For CELISA negative control, non-transfected mammalian cells were incubated with hybridoma supernatants and detected with the secondary Bethyl antibody. For a CELISA transfection control, mammalian cells, transfected with the constructs described above, were detected with anti-tag antibody.
As for B12, the “% positive” value was 127% and the Rfu worked out at 867 rfu.

For B13, the “% positive” value stood at 111% and the Rfu is 759 rfu.

B14: the “% positive” value is 131% and the Rfu turned out to be 896 rfu.

Another assay addresses T3, cynomolgus CD3e/d complex on cells transiently transfected with pcDNA3.1-CD3e/d-cyn-mix (cynomolgus, UniProt Q95LI5 22-198; Q95LI8 22-171).
T3 construct: Tagged screening constructs
The assay can be described thus: CELISA, hybridoma supernatant. The method, then: as §2
For the molecule B12, the “% positive” value turned out to be 66% and the Rfu came out at 320 rfu.

On to B13, for which the “% positive” value amounted to 70% and the Rfu stood at 340 rfu.

Consider B14, for which the “% positive” value came to 76% and the Rfu came to 371 rfu.

The next assay addresses T4, human CD3 on human T cells (human, UniProt P07766 23-207).
T4 construct: Native TCR-CD3 complex on cells; also called primary human T cells; human pan T cells
Description: flow cytometry, Jurkat CD3+ (E6-1). For orientation: In flow cytometry, cells or beads pass a laser one at a time.
Regarding B12, the “% positive” value was determined as 72% and the geomean was 199000 geometric mean fluorescence.

With B13, the “% positive” value was 77% and the geomean was 215000 geometric mean fluorescence.

In the case of B14, the “% positive” value came to 66% and the geomean was 182000 geometric mean fluorescence.

The next assay addresses T1, human PSMA on cells (LNCaP). Description: flow cytometry cell binding assay on LNCaP cells. The source holds these as a separate data set. Here is the method:
as §1
For the molecule B15, the binding result is listed as “binds”.

For the molecule B16, the binding result was “binds”.

B17: the binding result is “binds”.

As to B18, the binding result is “binds”.

Turning to B19, the binding result is listed as “binds”.

For the molecule B20, the binding result is listed as “binds”.

B21: the binding result is “binds”.

On to B22, for which the “EC50 (read off the curve)” value was roughly 2 nM.

On to B23, for which the binding result is recorded as “binds”.

In the case of B24, the concentration giving a half-maximal response (EC50 (read off the curve)) is roughly 8 nM.

What is called EC50 (read off the curve) is the concentration giving half of the maximal effect. A high value points to a less potent agent.

These data come from patent US20230322924A1 (Janssen / Centocor, published 2023).
